Experimental data reported in the DeepSol protein solubility set.

assay: soluble on expression in E. coli; label from the status in PepcDB or PDB records

Row | Sequence | soluble on expression in E. coli
1 | MNTQNYTYSTTGYQPSQPSGGQQSYNETRQYSSNATSNYPSQTQQYQQQQHQYQSDHSNAQRLLNSGYNTNQVDYVLGHKDKYNEGPHYQPPIINSSATAANNSSSSTHHYNSSSQAIPLGGPNQGHSSSSYTTETRVTGGGTGAPVSNNYSNQNYSSSAYNSQSSQHQTKSIPVQNYQISFPPLSVSTPAFGTSFFENSQKSFQESSEKFHRDLASPLSRTIPVQSAGHFSEVSKYFNSEEEENYQVSQPAIPLPSADQVYEVSSNYNKSYSSQTTTQHQPQPVAANNNYSTSYHTERSSTTTAQQPQTIALPPPQNNSSHTETHSSTGPIMMHSPGGHSMKSTEFSSSRHHKQETTTTTTTTPQPPVFQTTTYPTTKTTSYNYSSSTIPSQPAKPSFNQESYTTHTERNNSSQGFPQQRLQPSGGYSYENYSSSRKEENRREETSRPVSQLSQYSESRNYKRNYEEKTETTTVPSLAPATNVTYKDLSNAQCVDDVFNKKTEMNESLPVGSVFNTHNNTEGGYRDANGHDVSYKRETQTSADPGRETALLKEEEKRVVETPLEPGVISRHVTTKYYKKKTVTDTTTTTA | not soluble
2 | MSLHDYCLPCPTSLSGIAEVNPMSKPLVRWPINPLRTAVIVVDMQKVFCEPTGALYVKSTADIVQPIQKLLQAARAAQVMVIYLRHIVRGDGSDTGRMRDLYPNVDQILARHDPDVEVIEALAPQSDDVIVDKLFYSGFHNTDLDTVLRARDVDTIIVCGTVTNVCCETTIRDGVHREYKVIALSDANAAMDYPDVGFGAVSAADVQRISLTTIAYEFGEVTTTAEVIRRIESAYPHGREGHHHHHH | soluble
3 | MKRKHLSGKSIGIVFGTFAPMHVGHVDLITKEKRANDNVLVIVSGSNTQKDRGTRTGLSLNRRFRNVREIFYDDELIVVDKLDEADMPPYPEGWVPWVNRVKDLITKNTDGPEKITFYVGESEYVIELNRYYPQAQVELIECSVINISATEIRDNPIENWRFITKPFRRHFTRKVLVVGSASGGKTTLVKDLARTYNAPCSLEYAREYQEKYNVRDDELDTNDYIHLLTDQYAQTAEIIDNGQHSWLIFADTNSTVTKVYIDYYLKENISQEEFDLLDRLYQVTQAREKWDLIFVILPKSNYVDDGSRDMTMADNRTRDWFTKHLLDLLSPFKDKIVILVENCDSDSFFADNYHYAKKTIKERLHIEI | not soluble
4 | MWLTKLVLNPASRAARRDLANPYEMHRTLSKAVSRALEEGRERLLWRLEPARGLEPPVVLVQTLTEPDWSVLDEGYAQVFPPKPFHPALKPGQRLRFRLRANPAKRLAATGKRVALKTPAEKVAWLERRLEEGGFRLLEGERGPWVQILQDTFLEVRRKKDGEEAGKLLQVQAVLFEGRLEVVDPERALATLRRGVGPGKALGLGLLSVAP | soluble
5 | GPGSMYSKTPCVLGMPYEAAGAVLCNNPYRSQALSWYRKFLKAAFTVPWETDDDALYVMEESRRLFRQNARLTDVEMIQRKLREAEMRYELGVHYRIPYPRPVHKMQGSLQESGVPYAADLDSMYDHPVNPRTGRISEGSANYGVMGGVDNSNELLEGEMGADAEDFSK | soluble
6 | MSDAMPLDQTLEQLTQDEWIDIPQGWSQGRTIYGGLVAGLLMHKALSVMNDESKNLLSTSITFVGPVNEGRVRLTVEILRQGKSVTTIEARLWQDQAVQTILIASFGQPRSSEIFVLEHHHHHH | soluble
7 | MSNFLDLQKQRRSIYALGKTVDLSKAELVALIQNAIKQAPSAFNSQTSRALVLFGQDSQDFWNKIAYSELEKVTPAEAFAGTKAKLESFAAGVGTILLFEDQAVVRNLEENFPLYAENFQPWSEQAHGIALYAIWLALAEQNIGMSVQHYNPLVDAQVAEKYDLPTNWKMRAQIPFGSIEAPAGEKEFMADQERFKVFGDLEHHHHHH | soluble
8 | MKQVKIMFLMTMFLGIGLLFFSENAEAAITSNEIGTHDGYDYEFWKDSGGSGSMTLNSGGTFSAQWSNVNNILFRKGKKFDETQTHQQIGNMSINYGATYNPNGNSYLTVYGWTVDPLVEFYIVDSWGTWRPPGGTPKGTINVDGGTYQIYETTRYNQPSIKGTATFQQYWSVRTSKRTSGTISVSEHFRAWESLGMNMGNMYEVALTVEGYQSSGSANVYSNTLTIGGQSGGEQATRVEAESMTKGGPYTSNITSPFNGVALYANGDNVSFNHSFTKANSSFSLRGASNNSNMARVDLRIGGQNRGTFYFGDQYPAVYTINNINHGIGNQLVELIVTADDGTWDAYLDYLEIR | soluble
9 | MSLNCKQRRYMKILIVDDNEQYRKLLSAIFVDRGWEAIDAPEGNKGMELLREHIPDVILSDIMMPRMDGFQFLRALRTSAFGDIIFIFYTSTYTKASHRDFALSLGADAYIAKPLDPEDIVQALMDILDRKELREGHHHHHH | not soluble
10 | GLNPPSAFSGAALACLEKMQASGVEEKCIHIFLIQHALVRKGETGYIPEKSISPVESLPFLQGIETKGENTALLRQAVVLKLNGGLGTGMGLNGPKSLLQVKNGQTFLDFTALQLEHFRQVRNCNVPFMLMNSFSTSGETKNFLRKYPTLYEVFDSDIELMQNRVPKIRQDNFFPVTYEADPTCEWVPPGHGDVYTVLYSSGKLDYLLGKGYRYMFISNGDNLGATLDVRLLDYMHEKQLGFLMEVCRRTESDKKGGHLAYKDVIDETTGQTRRRFVLRESAQCPKEDEDSFQNIAKHCFFNTNNIWINLMELKKMMDEQLGVLRLPVMRNPKTVNPQDSQSTKVYQLEVAMGAAISLFDRSEAVVVPRERFAPVKTCSDLLALRSDAYQVTEDQRLVLCEERNGKPPAIDLDGEHYKMIDGFEKLVKGGVPSLRQCTSLTVRGLVEFGADVSVRGNVVIKNLKEEPLIIGSGRVLDNEVVVVE | soluble
11 | MTLPPDAPSRHRLVHALERTADLLDILGGEDFKSRAYRSAARSLEELNEETPELLAREFTGIPKVGKGIAAELSDFARSGTFAPLEAAAGQLPPGLLDLLGVRGLGPKKIRSLWLAGIDSLERLREAAESGELAGLKGFGAKSAATILENVVFLFEARQRQSLRAGLAVAEELAGALTDLSPAPAGDVRRGLETVRAAELTVTGTPDDVLARLPELTVQGDGVLSGDYEGVPVEIACAPAEARGALDLLRSGEHFAGQVQAAAQARGFTLTAGGLSRGDEVLPTPTEAVVFHALDLPFRPAEYREPEHDDLWQTLPDPAELVTVGDLRGMIHTHSTWSDGGASIREMAEATLTLGHEFLGTADHSRAAYYANGLTIERLREQLKEIRELQRAGLPIVAGSEVDILDDGSLDFPDDVLGELDYVVVSVHSNFTLDAARQTERLIRAVSHPLVTVLGHATGRLLLRRPGYALDLDAVLGACEANGTVVEINANAARLDLDWREALRWRERLKFAINTDAHVPGGLRDARYGVMQARKAGLTPAHVVNSLGRAEFLDFVARQRAARGAPGPADRAHHHHHH | soluble
12 | RIRKEPPVYAAGSLEEQWYLEIVDKGSVSCPTCQAVGRKTIEGLKKHMENCKQEMFTCHHCGKQLRSLAGMKYHVMANHNSLP | soluble
13 | MEEPINVLLLGMDIGDTSDVSNKDAKRTDTIILANFDPITKEAKLISIPRDTRVKIGGKSQKINAAYPIGGEKLVKQLVGNILGVKVDYVVKVDYEGFRGIIDAIGGIDMYIEQDMNYDDPGQDLHIHFNKGETVHLDGKKAEEFFRWRKNNDGTGLVNGDVDRIKNQQKFINAVIDKVLSVSTITKIDSIAEILNKNIETNIPLDVTVAYGLKGLETDKNNIKMMTLPGEGKYVGNVSYYIPDEKATKELRSQLNSSNLSGRKNVIPSAARGDLSIKVLNCTKINGLAANVQKQLNENGYDKVDVGNGDPREKSEILIKDESSRAFMENDLKIENIKKGISSKYDGNGTYDVVILLGKDFKNFGEMKLEHHHHHH | soluble
14 | MEENNKILIYTDSEGLTKIDVILEDETLWLTQAQMCELYQTSKSNVSEHIKHIFEEGELQEDSVVRKFRTTASDGKSYMTAYYNLDMIIALGYRIRSIIATRFRQWATQRLKEYMIKGFALDDERLKQLGGGGYWKELLERIRDIRATEKVLYRQVLEIYATSIDYDPRASVSQEFFKKVQNKIHYAIHGHTAAELIVERADAEKDFMGLLTFKGNQPTLSEARTAKNYLDEKELRAMGQLVSGYLDFAERQAEREQPMTMNDWANYLDRILTMSGEQLLLDSGKVSHTEAMEHATNEYRKYKQRTISDVEQDYLDSIKRIGNIGKKGDKNEN | not soluble
15 | MSLTITENPYRLSLDIEGIGFQTADAIATSLGVAKNSLMRAEAGISHVLGELSQNGHCAVPEETLIDEASRLLQIDHPLVVEAVKNEKLTRRIVGETIDGVPCIFLESLHRAETGVASGLHRLMRGPLPWNALDPHDALPWIEETTALELSPSQRSAVTLVLASKVSIITGGPGVGKTTILKAILSVLQREKVSVALCAPTGRAAKRLTESTGIEAKTIHRLLEFDPQAFDFKRGRGNPLDASFVVVDETSMVDVVLMQKLVAAIPDHAAVVFVGDVDQLPSVGPGAVLADMISSEAIPTVRLTEIFRQAAESMIVVNAHRINQGDMPLTEGHHHHHH | soluble
16 | MLFMIEVEIFPHRYLKASTTEKFLNKIYDLKTVERVVIHGQPLPKVITYGPARGLPVNHTERKIIHVKGVPVELTVMAGRFWITLSDDSELDKLDEICKEMFPFGYNLRVGKFLKDRPTVTDYIKYGEDGVFLINEMDRRLIGMVDPRSRMANLEHHHHHH | not soluble
17 | MSLENKENLVVIDLAIAEDSIQKKNIVYDKNGQNHFDVISAFIKSIRGSDPDATLYWLANMVEAGEDPNFIFRRLLISACEDIGLADPNAIVVVQSCCDAFDRVGFPEGLFFLSQASLYLAISPKSNSTKSIFKAMEAIKATNVSLVPNHLKNNASNYLNPHNYQGKWLQQEYLPTDLQGIKFWKPKDSGWEKNKYEDLPKKQKSEGHHHHHH | soluble
18 | GPVKLRLTVLCAKNLVKKDFFRLPDPFAKVVVDGSGQCHSTDTVKNTLDPKWNQHYDLYIGKSDSVTISVWNHKKIHKKQGAGFLGCVRLLSNAINRLKDTGYQRLDLCKLGPNDNDTVRGQIVVSLQSRD | soluble
19 | MNRNDAYHTLISEICALSLISEPERFYESANFKISDVDFTLHYQDRDEGRAILIYGDMGALPARNRDSALLALMDINFHMFSGAHSPAFSWNAQTGRVLLMGSIGLERATAEGVLLLMKSFADLAREWREHGFMGPVGAAGAPVNMPASQATTRDTPASSGRFQ | not soluble
20 | MSLSDTTKTASTRTSVTDQEALDFHAQGRPGKLEITPTKPMATQRDLSLAYSPGVAVPVKAIAENPATAYDYTTRGNMVAVISNGTAILGLGNLGALASKPVMEGKSVLFKRFADVDSIDLEVDTEDADEFINCVRYLGPSFGGINLEDIKAPECFIIESRLRELMDIPVFHDDQHGTAIIAAAGLINAIELTGRDFKTTKLVCNGAGAAAIACMDLIKAMGFNPENITLCDTKGVIYQGRTEGMNQWKSAHAVKTDRRTLTEAMNGADVVFGLSQKGAFTEEMIRSMAPKPIIFAMANPDPEITPEEVSRIRDDAIMATGRSDYPNQVNNVLGFPYIFRGALDVRARQINDAMKIAAAQALADLAREDVPDDVAAAYQGNRPRFGSQYIIPVPFDPRLISAIPVAVAKAAIETGVAQREIPDLDAYARELSARRDPMASTTQRLYERVRRSPKRVVFAEAEEEQVMRAAISFTAQGLGTAILLGRDDIIKANAERAGIDLDRANIEITNARLSSRVDAYVDYLYARLQRGGFLLRDVQRLIHNDRNHFAACMVAMGDADAVVTGVTRNYSTALEDIRRCINTKPGHRVIGVSLVVSRNRTVFVADTAVHDMPNAEDLADIAEEAAHLARRFGYEPRVAMLAYSTFGQPVGERSDKVREAVKILDKRNVNFEVDGEMSADVALNHQRMQSQYPFARLSGAANVLVMPAIHSASISTKMLQELGGATVIGPLLVGLDKSVQITSMGAKDSDIVNMAAIAAYNAGREGHHHHHH | not soluble
